In article PMC5821828, “A Genetic Screen for Investigating the Human Lysosomal CystineTransporter, Cystinosin” (Scientific Reports, 2018):

What follows are molecules tested on N[C@@H](CSSC[C@H](N)C(=O)O)C(=O)O (assay: cells, lysate or membranes). Conditions: pH 5.5 (MES), 2% glucose, 30 °C, vps1Δvps17Δ yeast, labelled compound.
Assay type: cell-based, Homo sapiens

Row | Molecule | Km [µM]
1 | CTNS-Δgydql (Homo sapiens; G197R) (protein, lacks C-terminal GYDQLN (lysosomal targeting motif; Y363 and L366), untagged, p416TEF (ABE 3513), expressed in S. cerevisiae vps1Δvps17Δ (ABC 5017)) SVSLTVPPVVKLENGSSTNVSLTLRPPLNATLVITFEITFRSKNITILELPDEVVVPPGVTNSSFQVTSQNVGQLTVYLHGNHSNQTGPRIRFLVIRSSAISIINQVIGWIYFVAWSISFYPQVIMNWRRKSVIGLSFDFVALNLTGFVAYSVFNIGLLWVPYIKEQFLLKYPNRVNPVNSNDVFFSLHAVVLTLIIIVQCCLYERGGQRVSWPAIGFLVLAWLFAFVTMIVAAVGVTTWLQFLFCFSYIKLAVTLVKYFPQAYMNFYYKSTEGWSIGNVLLDFTGGSFSLLQMFLQSYNNDQWTLIFGDPTKFGLGVFSIVFDVVFFIQHFCLYRKRP | 97.3 ± 30.9
2 | CTNS-Δgydql (Homo sapiens; G131S) (protein, lacks C-terminal GYDQLN (lysosomal targeting motif; Y363 and L366), untagged, p416TEF (ABE 3513), expressed in S. cerevisiae vps1Δvps17Δ (ABC 5017)) SVSLTVPPVVKLENGSSTNVSLTLRPPLNATLVITFEITFRSKNITILELPDEVVVPPGVTNSSFQVTSQNVGQLTVYLHGNHSNQTGPRIRFLVIRSSAISIINQVISWIYFVAWSISFYPQVIMNWRRKSVIGLSFDFVALNLTGFVAYSVFNIGLLWVPYIKEQFLLKYPNGVNPVNSNDVFFSLHAVVLTLIIIVQCCLYERGGQRVSWPAIGFLVLAWLFAFVTMIVAAVGVTTWLQFLFCFSYIKLAVTLVKYFPQAYMNFYYKSTEGWSIGNVLLDFTGGSFSLLQMFLQSYNNDQWTLIFGDPTKFGLGVFSIVFDVVFFIQHFCLYRKRP | 130.4 ± 10.9
3 | CTNS-Δgydql (Homo sapiens; S270T) (protein, lacks C-terminal GYDQLN (lysosomal targeting motif; Y363 and L366), untagged, p416TEF (ABE 3513), expressed in S. cerevisiae vps1Δvps17Δ (ABC 5017)) SVSLTVPPVVKLENGSSTNVSLTLRPPLNATLVITFEITFRSKNITILELPDEVVVPPGVTNSSFQVTSQNVGQLTVYLHGNHSNQTGPRIRFLVIRSSAISIINQVIGWIYFVAWSISFYPQVIMNWRRKSVIGLSFDFVALNLTGFVAYSVFNIGLLWVPYIKEQFLLKYPNGVNPVNSNDVFFSLHAVVLTLIIIVQCCLYERGGQRVSWPAIGFLVLAWLFAFVTMIVAAVGVTTWLQFLFCFTYIKLAVTLVKYFPQAYMNFYYKSTEGWSIGNVLLDFTGGSFSLLQMFLQSYNNDQWTLIFGDPTKFGLGVFSIVFDVVFFIQHFCLYRKRP | 207.2 ± 41.5
4 | CTNS-Δgydql (Homo sapiens; G309C) (protein, lacks C-terminal GYDQLN (lysosomal targeting motif; Y363 and L366), untagged, p416TEF (ABE 3513), expressed in S. cerevisiae vps1Δvps17Δ (ABC 5017)) SVSLTVPPVVKLENGSSTNVSLTLRPPLNATLVITFEITFRSKNITILELPDEVVVPPGVTNSSFQVTSQNVGQLTVYLHGNHSNQTGPRIRFLVIRSSAISIINQVIGWIYFVAWSISFYPQVIMNWRRKSVIGLSFDFVALNLTGFVAYSVFNIGLLWVPYIKEQFLLKYPNGVNPVNSNDVFFSLHAVVLTLIIIVQCCLYERGGQRVSWPAIGFLVLAWLFAFVTMIVAAVGVTTWLQFLFCFSYIKLAVTLVKYFPQAYMNFYYKSTEGWSIGNVLLDFTGCSFSLLQMFLQSYNNDQWTLIFGDPTKFGLGVFSIVFDVVFFIQHFCLYRKRP | 124.8 ± 23.5
5 | CTNS WT (human cystinosin with GYDQL motif) (Homo sapiens) (protein, full-length, untagged, plasmid p416TEF (TEF-CTNS, ABE 3006), expressed in S. cerevisiae vps1Δvps17Δ; uptake across plasma membrane) SVSLTVPPVVKLENGSSTNVSLTLRPPLNATLVITFEITFRSKNITILELPDEVVVPPGVTNSSFQVTSQNVGQLTVYLHGNHSNQTGPRIRFLVIRSSAISIINQVIGWIYFVAWSISFYPQVIMNWRRKSVIGLSFDFVALNLTGFVAYSVFNIGLLWVPYIKEQFLLKYPNGVNPVNSNDVFFSLHAVVLTLIIIVQCCLYERGGQRVSWPAIGFLVLAWLFAFVTMIVAAVGVTTWLQFLFCFSYIKLAVTLVKYFPQAYMNFYYKSTEGWSIGNVLLDFTGGSFSLLQMFLQSYNNDQWTLIFGDPTKFGLGVFSIVFDVVFFIQHFCLYRKRPGYDQLN | 400 ± 133

The molecules below were run on T1, N[C@@H](CSSC[C@H](N)C(=O)O)C(=O)O (assay: cells, lysate or membranes). Conditions: pH 5.5 (MES), 2% glucose, 30 °C, vps1Δvps17Δ yeast, labelled compound.
T1 construct: lacks C-terminal GYDQLN (lysosomal targeting motif; Y363 and L366), untagged, p416TEF (ABE 3513), expressed in S. cerevisiae vps1Δvps17Δ (ABC 5017)
Assay type: cell-based, Homo sapiens

Row | Molecule | Km [µM]
6 | CTNS-Δgydql (Homo sapiens; DEL362-367) | 254.4 ± 61
